Measured values as given in patent US20190177376A1.

Target: human IgG (human)
Experiment: ELISA, IgG coated on plate, detection with Strep-Tactin-HRP

## domain B (from UniProt P38507 212-269)
  Kd: 3.1 nM
